# B1: HDV Ribozyme (parent)
# chain: GGCCGGCAUGGUCCCAGCCUCCUCGCUGGCGCCGGCUGGGCAACAUUCCGAGGGGACCGUCCCCUCGGUAAUGGCGAAUGGGACCCA
# Variants of: B1
# Assay: self-cleavage, relative activity (ratio to wild type); higher = more cleavage; co-transcriptional
row,Variant,self-cleavage
1,C4G U12A,0
2,C3G A51U,0.768
3,C3G A51C,0.779
4,C4G C36U,0.0504
5,C4G C36G,0.0268
6,C3G C75U,0.0863
7,C3A G5C,0.0339
8,C4A A51G,0.502
9,C4A A51U,0.145
10,C3U A70G,0.973
11,C3U A70U,0.678
12,C4G C66G,0.727
13,C3U C22U,0.525
14,C3G G28C,0.107
15,C3A G29A,0.012
16,C4G C30U,0.0615
17,C3A G80C,0.111
18,C3G G50C,0.475
19,C3A C85U,0.626
20,C3U C66A,0.69
21,C3U C66G,0.758
22,C3U A42G,0.483
23,C3U A42U,0.339
24,C4U C15G,0.262

row,Variant,self-cleavage
1,C4A U47G,0.201
2,C4G C21G,0
3,C4A C57G,0.277
4,C3U C62G,0.415
5,C4U G25U,0.0287
6,C4A G11A,0.0183
7,C4A G11C,0.0604
8,C4G G11U,0.0767
9,C4U A71G,0.643
10,C3G G59C,0.903
11,C3U C24A,0.328
12,C3U G35C,0.49
13,C4A C19U,0.0203
14,C4A G52C,0.406
15,C4A G52U,0.213
16,C4A C66G,0.289
17,C3G G52C,0.658
18,C3G G52U,0.691
19,C3U A8C,0.269
20,C3G A87G,0.708
21,C4G C86U,0.44
22,C3G C41A,0.217
23,C3G C41U,0.547
24,C4U A16G,0.862

row,Variant,self-cleavage
1,C4U A16U,0.462
2,C4U C13A,0.122
3,C4U G10U,0.163
4,C4U A87G,0.599
5,C4U A87U,0.817
6,C3A C64A,0.564
7,C4G G40A,0.237
8,C4G A83C,0.102
9,C4A U9G,0.383
10,C4A U9A,0.323
11,C3G A70C,0.508
12,C3A C44G,0.0615
13,C3A C44A,0.103
14,C4G G74A,0.0639
15,C3G G35C,1.48
16,C4U C33A,0.0845
17,C4A A43G,0.158
18,C4A A43U,0.0707
19,C4U A77U,0.415
20,C3A C62A,0.511
21,C3U G55C,0.867
22,C3U G55U,0.805
23,C3U G17C,0.0297
24,C3U G17U,0.193

row,Variant,self-cleavage
1,C4G U65G,0.231
2,C4G G82A,0.0674
3,C4G G82C,0
4,C4G G53A,0.277
5,C4G G53C,0.213
6,C4A G74A,0
7,C3G C15G,0.266
8,C3G C15A,0.293
9,C3G C4U,0.0171
10,C4G G67A,0.437
11,C4G G67U,0.227
12,C3U G39U,0.385
13,C4G C19A,0
14,C3U G25C,0.113
15,C4G A43U,0.0415
16,C3A G35C,0.604
17,C3A G38U,0.0471
18,C3A G38A,0.124
19,C4A G59U,0.415
20,C3U A87C,0.759
21,C3U G6A,0.245
22,C3U G6U,0.0934
23,C4G A42C,0
24,C4U C7A,0.104

row,Variant,self-cleavage
1,C4U C7U,0.457
2,C3U A51U,0.992
3,C3U A51C,0.831
4,C4U C84G,0.19
5,C4A G10A,0.0554
6,C4A G10C,0.141
7,C3G U69G,0.658
8,C4U C63A,0.95
9,C3U G28U,0.0707
10,C3A G81U,0.107
11,C4A G38U,0.0449
12,C3A G39C,0.0196
13,C3A G25A,0.0658
14,C3A U37A,0.122
15,C3G U12C,0
16,C3G G74C,0.0779
17,C3G G74U,0.189
18,C3U C64A,0.518
19,C3A C22G,0.0631
20,C3G C44U,0.156
21,C4U A70C,0.482
22,C3G G67U,0.626
23,C4A U79G,0
24,C4A U79C,0

row,Variant,self-cleavage
1,C3G U65C,0.817
2,C4A C48A,0.225
3,C4A C48U,0.151
4,C3G A43G,0.125
5,C4G G5C,0.0594
6,C3A U46C,0.173
7,C4A U27A,0.189
8,C4A U27C,0
9,C3G U27G,0.479
10,C3G C86U,0.885
11,C4G G6C,0.214
12,C4A C21G,0
13,C4A A45G,0.138
14,C4A A45C,0.0519
15,C4U A56U,0.898
16,C4U A56G,0.665
17,C4A C24G,0.0573
18,C3U C63G,0.572
19,C3G A8U,0.376
20,C3G A8G,0.767
21,C4U C26A,0.773
22,C3U C7U,0.529
23,C3A G52A,0.699
24,C3A G52C,0.676

row,Variant,self-cleavage
1,C3G G29U,0.0656
2,C4A U46A,0.151
3,C4A U46C,0.111
4,C4A U46G,0.0615
5,C4A C75U,0.102
6,C4A C75A,0.157
7,C4U C66G,0.875
8,C4A C18U,0.119
9,C3G U20A,0.0755
10,C3G U20G,0
11,C3U G74A,0.245
12,C4U C21A,0
13,C4U C21G,0
14,C4U C32A,0.0906
15,C4A G34U,0.831
16,C3A U27G,0.322
17,C3A U27A,0.306
18,C3U C30U,0.345
19,C3U C30A,0.223
20,C3U C30G,0
21,C3U A45C,0.43
22,C3U A45G,0.607
23,C4G C58A,0.429
24,C3U G11U,0.138

row,Variant,self-cleavage
1,C4G A56C,0.32
2,C4G A56U,0.462
3,C3U U37C,1.08
4,C4G A8C,0.0898
5,C4A G80C,0
6,C4A G80U,0.048
7,C4A G80A,0.0519
8,C4A A8G,0.192
9,C3U G54U,0.732
10,C4A U20A,0.0386
11,C4A U20G,0
12,C3G G17C,0.0941
13,C4A A71G,0.151
14,C4A A71U,0.259
15,C3U G29C,0.0601
16,C3U G31U,0.173
17,C4G G50U,0.527
18,C4G C62U,0.388
19,C4G C62A,0.446
20,C3U C26A,0.923
21,C3A G54U,0.453
22,C4G G10C,0.237
23,C4G G10U,0.0779
24,C4A C58A,0.348

row,Variant,self-cleavage
1,C3A C61A,0.596
2,C4A G81A,0.0468
3,C3G C49G,0.523
4,C4A C85G,0.393
5,C4G G31C,0.108
6,C3A C32A,0.0545
7,C3G A83G,0.289
8,C4G G73C,0.0361
9,C4U C30A,0.133
10,C4U C30G,0
11,C3U G76C,0.708
12,C4G U9A,0.534
13,C4U A8U,0.415
14,C4U A8G,0.762
15,C4A C49G,0.302
16,C3U U69C,0.616
17,C4G C44U,0.141
18,C4A A87G,0.233
19,C4A A87C,0.21
20,C4A A87U,0.39
21,C4G U20C,0.0791
22,C3A U23A,0.475
23,C4A A77G,0.0369
24,C4A A77U,0

row,Variant,self-cleavage
1,C3A C33A,0.0698
2,C4A C32A,0.0332
3,C3G G53A,0.742
4,C3G G53U,0.549
5,C4A C36U,0
6,C3G C7G,0.0244
7,C3G C7U,0.226
8,C3U C4A,0.0817
9,C4U G6C,0
10,C3G C62U,0.822
11,C4G G17C,0.0354
12,C4G G17A,0.0791
13,C3A U9G,0.985
14,C3A G68A,0.408
15,C4U C22U,0.259
16,C4G G34U,0.864
17,C3U A71G,0.89
18,C4G C33U,0.123
19,C3U G53A,1
20,C3A G82A,0.0811
21,C4A G39U,0.14
22,C3A C36G,0.0608
23,C3G A42C,0.128
24,C3A G73A,0.152

row,Variant,self-cleavage
1,C3A G73C,0.0755
2,C3G A56C,0.681
3,C3G A56G,0.692
4,C3U C61G,0.816
5,C3A C26A,0.795
6,C4U C41A,0.434
7,C4A G31A,0.0415
8,C4A U69A,0.185
9,C3U G73U,0.257
10,C3U G73A,0.366
11,C3G G11C,0.225
12,C3G G11A,0.144
13,C3A C75G,0.0308
14,C4A G6U,0.0791
15,C4A G6A,0.0573
16,C3U U20C,0.113
17,C4G C64G,0.259
18,C3U C18G,0.0779
19,C4G G59U,0.475
20,C3U A78U,0.117
21,C3U A78G,0.446
22,C3U C86A,0.923
23,C3U C86U,0.718
24,C4U C62A,1.06

row,Variant,self-cleavage
1,C3G G55C,0.682
2,C3G G6A,0.0923
3,C4A G25U,0.0252
4,C3A U60A,0.611
5,C4G G25U,0.109
6,C4A G67A,0.149
7,C4A G67C,0.348
8,C4A C33G,0
9,C3A G59U,0.755
10,C3U C14U,0.758
11,C3U C14G,0.739
12,C3A G55C,0.642
13,C3A G55U,0.563
14,C3A G76A,0.783
15,C4G U47A,0.346
16,C4A G40C,0.0511
17,C4A C13A,0.0282
18,C3U U47C,0.564
19,C3U U47A,0.969
20,C4G G54A,0.288
21,C4G G54U,0.464
22,C3U G50C,0.686
23,C3G U79A,0.491
24,C4G C7U,0.0234

row,Variant,self-cleavage
1,C4G C41G,0.0437
2,C4U G17C,0.147
3,C4U C86U,0.889
4,C3U C58U,0.696
5,C3U G82A,0.283
6,C3U U79A,0.591
7,C4G C84A,0.225
8,C3A G74C,0.0369
9,C4U A78C,0.0378
10,C4G U37C,0.375
11,C3U G5U,0.107
12,C3U G5C,0.0123
13,C4A C22G,0.102
14,C4A C22U,0.148
15,C3G G81C,0.0831
16,C3G G81A,0.201
17,C3G G81U,0.185
18,C4A C86A,0.185
19,C3U G40C,0.26
20,C4G A87U,0.225
21,C3A G28C,0.0275
22,C3A C66U,0.549
23,C3A C66G,0.508
24,C3G G10U,0.193

row,Variant,self-cleavage
1,C4G C61A,0.35
2,C4G C61G,0.325
3,C4A G29C,0.0369
4,C4G C57U,0.529
5,C3G A78C,0.134
6,C4A A78C,0.0308
7,C4A U37A,0.0332
8,C4U C75A,0.128
9,C4U C75U,0.155
10,C3U C15G,0.6
11,C4U C44U,0.394
12,C4U C44A,0.578
13,C3U C13U,0.509
14,C3U C13G,0.179
15,C4A C41A,0.117
16,C3U A16U,0.831
17,C4U A83U,0.115
18,C4G U23G,0.0386
19,C3G C26A,0.669
20,C3G C26U,1.2
21,C4A C63G,0.0755
22,C3U A56U,0.861
